{"source": "patent US20050130232A1", "about": "“Methods of screening for compounds that modulate hormone receptor activity” (Allergan, Inc., priority 2001, published 2005)", "key": {"[1]": {"target": "protein kinase A activity endogenous to HEK 293 cells (co-immunoprecipitated with tagged RXRα)", "experiment": "cell-based or functional assay"}, "protein kinase A [2]": {"system": "protein kinase A", "experiment": "Km of synthetic peptide substrates for protein kinase A", "assay_type": "biochemical"}, "protein kinase A [3]": {"system": "protein kinase A", "conditions": "specific PKA substrate; cited from earlier work"}, "[4]": {"system": "protein kinase A activity associated with RXRα", "experiment": "Protein kinase A activity in anti-Flag immunoprecipitates of PH-RXRα or RXRα transfected HEK 293 cells, synthetic peptide substrate", "assay_type": "cell-based, human", "conditions": "PH-RXRα, ligand-treated cells, inhibitor added to kinase reaction, substrate LRRASLG", "protocol": "293 cells were transfected with PH-RXRα. Sample 1: 0.1% DMSO (10 minutes). […] Sample 3: 0.1% DMSO (30 minutes).\nSample 1: 0.1% DMSO (10 minutes). […] Sample 3: 0.1% DMSO (30 minutes). […] Sample 5: No immunoprecipitate.\nSample 1: 0.1% DMSO. […] Sample 3: 0.1% DMSO with PKA inhibitor. […] Sample 5: 0.1% DMSO.\nFollowing immunoprecipitation with anti-Flag antibody, the synthetic PKA substrate, LRRASLG (SEQ ID NO: 59), was added to the immunoprecipitate along with γ-ATP.\nHEK 293 were cultured and transfected essentially as described above. Immunoprecipitates were prepared using the anti-Flag antibody, M2, as described above. Assays for protein kinase A activity were performed as follows. Immunoprecipitated complexes were resuspended in 40 μl of Kinase Assay Buffer (30 mM Tris-HCl, pH 7.4 and 10 mM MgCl2). Kinase reactions were initiated by addition of 10 μl of 500 μM synthetic peptide LRRASLG (SEQ ID NO: 59) or […] (SEQ ID NO: 60) prepared by Upstate Biotechnology (Lake Placid, N.Y.) and addition of 50 μM [γ-^32P]ATP (10 μCi) to the immune-complexes. […]\nIncorporated ^32P was separated from free label by applying the reaction mixture onto P81 phosphocellulose paper and subsequently washing the paper three times with 0.75% phosphoric acid and once with acetone. Protein kinase reaction samples were analyzed in a scintillation counter to determine the amount of ^32P-incorporation."}, "[5]": {"target": "T1, RXRα phosphorylation by protein kinase A (Homo sapiens, UniProt P19793)", "T1 construct": "host or cells: HEK293", "T1 sequence (P19793 1-462)": "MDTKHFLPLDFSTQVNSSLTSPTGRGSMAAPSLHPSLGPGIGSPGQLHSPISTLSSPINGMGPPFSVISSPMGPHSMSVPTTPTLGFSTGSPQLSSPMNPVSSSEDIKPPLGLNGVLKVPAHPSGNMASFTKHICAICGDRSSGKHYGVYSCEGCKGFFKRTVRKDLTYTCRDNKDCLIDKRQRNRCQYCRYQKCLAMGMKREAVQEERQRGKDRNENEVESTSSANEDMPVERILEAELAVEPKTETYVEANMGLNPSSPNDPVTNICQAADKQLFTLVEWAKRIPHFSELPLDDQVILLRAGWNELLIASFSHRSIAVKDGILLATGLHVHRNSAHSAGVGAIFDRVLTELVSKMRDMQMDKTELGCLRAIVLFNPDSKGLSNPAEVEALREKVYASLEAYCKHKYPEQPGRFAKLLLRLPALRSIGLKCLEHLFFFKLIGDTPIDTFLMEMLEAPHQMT", "experiment": "Phosphorylation of immunoprecipitated RXRα by purified PKA", "assay_type": "biochemical", "conditions": "inhibitor added to kinase reaction", "protocol": "Left panel: Cells were immunoprecipitated with anti-FLAG antibody, and the immunoprecipitates analyzed by SDS-PAGE and blotting with anti-PKA antibody. Right panel: Cells were immunoprecipitated with anti-PKA antibody, and the immunoprecipitates analyzed by SDS-PAGE and blotting with anti-FLAG antibody. B. Phosphorylation of RXRα by PKA. […] PKA I and PKC I indicate inhibitors of PKA and PKC, respectively.\nRXRα-containing immunoprecipitates prepared with anti-Flag antibody were incubated with purified catalytically active PKA (Upstate Biotechnology) and […]; in addition, protein kinase A inhibitor or protein kinase C inhibitor was added to some reactions as indicated. The kinase reaction products were analyzed by SDS-PAGE."}, "[6]": {"target": "protein kinase A activity endogenous to 3T3-L1 adipocytes", "experiment": "cell-based or functional assay"}, "[7]": {"system": "T2, Flag-RXRα (human retinoid X receptor α fused to the Flag epitope tag)", "T2 sequence": "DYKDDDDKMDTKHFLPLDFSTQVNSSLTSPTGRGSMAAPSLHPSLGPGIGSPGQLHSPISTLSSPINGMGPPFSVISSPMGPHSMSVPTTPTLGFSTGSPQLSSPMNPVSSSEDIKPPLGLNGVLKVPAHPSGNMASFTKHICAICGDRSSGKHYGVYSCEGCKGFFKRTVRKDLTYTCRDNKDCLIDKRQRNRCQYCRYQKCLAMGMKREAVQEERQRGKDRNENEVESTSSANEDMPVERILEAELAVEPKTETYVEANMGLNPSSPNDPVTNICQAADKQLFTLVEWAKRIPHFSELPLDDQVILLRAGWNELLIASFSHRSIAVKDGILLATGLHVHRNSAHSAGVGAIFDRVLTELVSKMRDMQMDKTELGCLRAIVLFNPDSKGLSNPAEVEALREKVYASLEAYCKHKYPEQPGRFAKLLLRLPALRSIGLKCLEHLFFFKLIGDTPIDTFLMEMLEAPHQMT"}, "[8]": {"target": "Flag-tagged PH-RXRα (Flag tag, pleckstrin homology domain of human insulin receptor substrate-1, human RXRα) (UniProt P35568)"}}}
{"substance": "Flag-tagged PH-RXRα (Flag tag, pleckstrin homology domain of human insulin receptor substrate-1, human RXRα) (from UniProt P35568 12-115)", "values": [{"measurement": "protein kinase A activity in anti-FLAG immunoprecipitates (32P incorporation into …), AGN194204-treated against DMSO-treated cells", "setting": "[1]", "value": "> 2", "unit": "fold"}]}
{"substance": "GRTGRRNSI [SEQ ID NO: 60, specific protein kinase A substrate]", "values": [{"measurement": "fold higher Vmax than kemptide", "setting": "protein kinase A [2]; relative to kemptide", "value": "about 2 fold"}, {"measurement": "fold lower Km than kemptide", "setting": "protein kinase A [2]; relative to kemptide (SEQ ID NO: 59)", "value": "approximately 40 fold"}, {"measurement": "Km", "setting": "protein kinase A [3]", "value": 0.11, "unit": "µM"}]}
{"substance": "RFARKGALRGKNV", "values": [{"measurement": "inhibition of RXRα-associated PKA activity", "setting": "[4]", "value": "not"}, {"measurement": "inhibition of RXRα phosphorylation by purified PKA", "setting": "[5]", "value": "not"}]}
{"substance": "endogenous RXRα of untransfected 3T3-L1 adipocytes (from UniProt P28700 1-467) (receptor)", "values": [{"measurement": "PKA activity in anti-RXRα (D20) immunoprecipitates (32P incorporation into SEQ ID NO: 59), ligand-treated against vehicle-treated cells", "setting": "[6]", "value": 2, "unit": "fold"}]}
{"substance": "protein kinase A activity endogenous to HEK 293 cells (co-immunoprecipitated with tagged RXRα)", "values": [{"measurement": "protein kinase A activity in anti-Flag immunoprecipitates (32P incorporation into LRRASLG)", "setting": "[7]", "value": "protein kinase A activity associated with RXRα lacking a fused pleckstrin homology domain was significantly enhanced in cells treated with 10^-7 M AGN194204 as compared to control vehicle"}, {"measurement": "protein kinase A activity in anti-Flag immunoprecipitates (32P incorporation into LRRASLG)", "setting": "[8]", "value": "significantly more protein kinase A activity was detected in immunoprecipitates from cells treated with AGN194024 ligand than in immunoprecipitates treated with control vehicle"}]}
{"substance": "purified catalytically active PKA (Upstate Biotechnology)", "values": [{"measurement": "in vitro phosphorylation of immunoprecipitated RXRα by purified PKA (SDS-PAGE)", "setting": "[7]", "value": "RXRα was phosphorylated, and the extent of phosphorylation was increased by addition of RXRα ligand, AGN194204"}]}
